{
  "source": "paper PMC5734611",
  "about": "(Nature nanotechnology, 2016)",
  "proteins": {"B1": {"name": "bacterial glycerol uptake facilitator GlpF (natural protein)", "chain": "MSQTSTLKGQSIAEFLGTGLLIFFGVGSVAALKVAGASFGQWEISVIWGLGVAMAIYLTAGVSGAHLNPAVTIALWLFASFDKRKVIPFIVSQVAGAFSAAALVYGLYYNLFFDFEQTHHIVRGSVESVDLAGTFSTYPNPHINFVQAFAVEMVITAILMGLILALTDDGNGVPRGPLAPLLIGLLIAVIGASMGPLTGFAMNPARDFGPKVFAWLAGWGNVAFTGGRDIPYFLVPLFGPIVGAIVGAFAYRKLIGRHLPCDICVVEEKETTTPSEQKASL", "modifications": "Atto 488 maleimide on cysteines (C261 and C264)"}},
  "molecular_target": "the molecule itself",
  "assay": "high-speed atomic force microscopy",
  "data": [
    {"protein": "B1", "values": [
      {"measurement": "stoichiometry N", "value": 4}
    ]}
  ]
}
